In patent publication US20170158755A1 (PROTHENA BIOSCIENCES, published 2017):

T1: LGde3, human LAMA4 G domain with LG3 deleted, displayed on 293 cells (human, UniProt Q16363 830-1821, limits assumed)
T1 construct: pDisplay construct on 293 cells; vector tags and anchor not written here; also called LGde3 (LG12); LGde3 (LG23)
T1 sequence: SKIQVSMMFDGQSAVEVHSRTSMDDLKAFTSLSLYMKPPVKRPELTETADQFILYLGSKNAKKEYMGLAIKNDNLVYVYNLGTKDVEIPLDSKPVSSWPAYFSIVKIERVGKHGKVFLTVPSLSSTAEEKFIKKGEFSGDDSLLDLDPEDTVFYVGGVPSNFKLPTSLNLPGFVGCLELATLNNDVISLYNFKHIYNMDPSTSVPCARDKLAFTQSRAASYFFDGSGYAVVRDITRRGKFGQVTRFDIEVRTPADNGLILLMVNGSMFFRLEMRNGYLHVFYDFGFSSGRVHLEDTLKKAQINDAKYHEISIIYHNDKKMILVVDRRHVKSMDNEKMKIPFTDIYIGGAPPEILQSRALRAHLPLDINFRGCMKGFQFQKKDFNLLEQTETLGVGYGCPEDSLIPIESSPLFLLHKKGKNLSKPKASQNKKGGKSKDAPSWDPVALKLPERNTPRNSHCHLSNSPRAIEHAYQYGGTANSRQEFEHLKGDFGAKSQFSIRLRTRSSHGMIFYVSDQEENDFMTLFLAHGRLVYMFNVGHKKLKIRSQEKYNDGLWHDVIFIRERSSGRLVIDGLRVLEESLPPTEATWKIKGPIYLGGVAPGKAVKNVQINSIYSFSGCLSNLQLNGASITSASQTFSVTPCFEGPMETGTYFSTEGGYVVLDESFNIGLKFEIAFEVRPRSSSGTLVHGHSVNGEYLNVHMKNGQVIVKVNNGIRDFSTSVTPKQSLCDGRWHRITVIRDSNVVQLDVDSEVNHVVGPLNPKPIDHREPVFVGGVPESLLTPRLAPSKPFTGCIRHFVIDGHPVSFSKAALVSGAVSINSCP

T2: LGde1, human LAMA4 G domain with LG1 deleted, displayed on 293 cells (human, UniProt Q16363 1036-1821)
T2 construct: pDisplay construct on 293 cells; vector tags and anchor not written here; also called LGde 1 (LG23)
T2 sequence: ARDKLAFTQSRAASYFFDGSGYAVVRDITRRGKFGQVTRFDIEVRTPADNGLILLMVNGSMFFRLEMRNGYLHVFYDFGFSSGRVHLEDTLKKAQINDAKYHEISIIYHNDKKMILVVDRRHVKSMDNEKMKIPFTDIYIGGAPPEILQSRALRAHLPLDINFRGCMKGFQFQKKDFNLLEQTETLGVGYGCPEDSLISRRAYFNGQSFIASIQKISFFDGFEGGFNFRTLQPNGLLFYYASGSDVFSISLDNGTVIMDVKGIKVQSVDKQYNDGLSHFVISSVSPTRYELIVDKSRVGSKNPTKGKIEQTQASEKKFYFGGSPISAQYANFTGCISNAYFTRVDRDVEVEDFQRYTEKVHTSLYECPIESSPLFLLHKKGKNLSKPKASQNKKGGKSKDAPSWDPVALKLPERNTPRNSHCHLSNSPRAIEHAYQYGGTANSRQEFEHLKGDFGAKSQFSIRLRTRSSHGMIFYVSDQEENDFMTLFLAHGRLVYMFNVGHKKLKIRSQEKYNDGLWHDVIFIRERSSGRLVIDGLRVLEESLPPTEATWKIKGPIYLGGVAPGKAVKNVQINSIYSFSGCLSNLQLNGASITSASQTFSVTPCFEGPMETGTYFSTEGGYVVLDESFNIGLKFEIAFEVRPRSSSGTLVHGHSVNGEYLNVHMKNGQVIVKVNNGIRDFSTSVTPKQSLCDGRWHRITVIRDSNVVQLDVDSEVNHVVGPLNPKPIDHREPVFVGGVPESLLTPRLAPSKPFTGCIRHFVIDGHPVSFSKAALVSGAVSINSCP


Columns and labels:
[1] = target: T1, LGde3, human LAMA4 G domain with LG3 …; assay: flow cytometry, 650-labeled MCAM-Fc on 293 cells displaying the variant
Description: (§1) LGde1 has a full-length G domain (i.e., LG1-5) with LG1 deleted, LGde2 has a full-length G domain with LG2 deleted, and LGde3 has a full-length G domain with LG3 deleted. Recombinant MCAM-Fc protein was able to specifically bind 293 cells expressing LAMA4 variants LG1-5, LG1-3, and LGde 1 (LG23), but not 293 cells expressing LAMA 4 variants LG4-5, LGde2 (LG13), or LGde3 (LG12).

[2] = target: T2, LGde1, human LAMA4 G domain with LG1 …; assay: as above
Description: as §1

[3] = target: T3, recombinant laminin 411 (human, UniProt P07942 22-1786; P11047 34-1609, limits assumed); assay: hMCAM.CHO flow cytometric blocking assay; antibody pre-incubated with laminin 411; blocked partner: human MCAM on CHO cells
T3 construct: also called LAMA4 in complex with its gamma1 and beta1 chains
Experimental: The monoclonal antibodies against LAMA4 were tested for their ability to block the binding of LAMA4 to its ligand MCAM. IgG control antibody, 1C1, 5Al2, 5B5, 19C12, and 12D3 were pre-incubated with recombinant LAMA4 protein, LAMA4-positive healthy mouse brain tissue, or LAMA4-displaying human 293 cells. […] For the mouse brain tissue blocking assay, antibodies were used at concentrations of 2.5 ug/ml or 0.04 ug/ml.
Following two washes with FACS buffer (1% FBS in PBS), cells were resuspended with 650-conjugated anti-pan-laminin antibody (1:1000; Novus Biologicals) and incubated for 20 min at 4° C., and washed again. Cells were analyzed for pan-laminin reactivity by flow cytometry using standard procedures.

T3 sequence (chain, as listed by the source limits assumed, chain 1 of 3): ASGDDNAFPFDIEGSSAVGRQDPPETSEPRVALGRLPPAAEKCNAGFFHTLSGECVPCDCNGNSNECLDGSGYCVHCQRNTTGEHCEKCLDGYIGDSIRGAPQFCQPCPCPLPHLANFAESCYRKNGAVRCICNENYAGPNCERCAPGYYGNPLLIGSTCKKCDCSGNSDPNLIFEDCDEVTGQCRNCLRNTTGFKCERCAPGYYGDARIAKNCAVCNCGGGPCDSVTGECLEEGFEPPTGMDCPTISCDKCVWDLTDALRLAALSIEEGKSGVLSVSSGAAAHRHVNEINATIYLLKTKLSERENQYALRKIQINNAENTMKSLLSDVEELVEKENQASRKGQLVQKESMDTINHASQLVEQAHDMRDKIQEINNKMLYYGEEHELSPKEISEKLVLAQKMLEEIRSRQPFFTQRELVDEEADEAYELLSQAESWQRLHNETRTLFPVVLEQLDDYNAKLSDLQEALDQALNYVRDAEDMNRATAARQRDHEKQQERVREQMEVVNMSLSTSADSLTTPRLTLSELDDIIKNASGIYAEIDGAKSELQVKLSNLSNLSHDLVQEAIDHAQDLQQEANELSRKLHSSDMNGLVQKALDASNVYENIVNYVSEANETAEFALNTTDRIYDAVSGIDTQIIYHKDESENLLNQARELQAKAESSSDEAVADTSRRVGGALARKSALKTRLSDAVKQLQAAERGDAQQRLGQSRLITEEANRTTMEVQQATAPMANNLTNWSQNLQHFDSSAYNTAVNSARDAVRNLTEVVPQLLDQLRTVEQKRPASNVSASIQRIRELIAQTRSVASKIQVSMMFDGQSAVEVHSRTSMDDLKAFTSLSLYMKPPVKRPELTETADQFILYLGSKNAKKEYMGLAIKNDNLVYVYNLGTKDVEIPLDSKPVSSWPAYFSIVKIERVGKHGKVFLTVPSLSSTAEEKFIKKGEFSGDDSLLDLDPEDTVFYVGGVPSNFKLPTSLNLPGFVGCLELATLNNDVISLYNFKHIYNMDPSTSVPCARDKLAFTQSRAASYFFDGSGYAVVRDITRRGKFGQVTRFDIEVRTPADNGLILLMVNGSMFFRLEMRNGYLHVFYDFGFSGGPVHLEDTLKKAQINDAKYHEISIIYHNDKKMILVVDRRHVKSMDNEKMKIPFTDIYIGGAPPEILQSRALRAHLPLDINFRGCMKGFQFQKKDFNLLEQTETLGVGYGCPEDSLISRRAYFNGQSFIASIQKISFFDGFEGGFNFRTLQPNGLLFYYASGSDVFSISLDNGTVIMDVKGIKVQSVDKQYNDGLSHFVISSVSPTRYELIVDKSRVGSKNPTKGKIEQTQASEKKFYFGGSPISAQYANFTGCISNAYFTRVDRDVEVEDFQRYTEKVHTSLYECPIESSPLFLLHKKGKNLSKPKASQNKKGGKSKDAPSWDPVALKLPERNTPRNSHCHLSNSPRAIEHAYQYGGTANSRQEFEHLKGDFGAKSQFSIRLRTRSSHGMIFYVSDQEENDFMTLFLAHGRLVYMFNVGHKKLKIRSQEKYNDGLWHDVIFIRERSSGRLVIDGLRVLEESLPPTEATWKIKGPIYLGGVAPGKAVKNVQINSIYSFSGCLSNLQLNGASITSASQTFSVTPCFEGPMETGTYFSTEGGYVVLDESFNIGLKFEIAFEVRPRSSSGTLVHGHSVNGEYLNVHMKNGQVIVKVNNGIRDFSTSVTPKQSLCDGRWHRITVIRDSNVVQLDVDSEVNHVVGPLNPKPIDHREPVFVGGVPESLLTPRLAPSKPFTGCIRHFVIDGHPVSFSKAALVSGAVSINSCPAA
T3 sequence (P07942 22-1786 limits assumed, chain 2 of 3): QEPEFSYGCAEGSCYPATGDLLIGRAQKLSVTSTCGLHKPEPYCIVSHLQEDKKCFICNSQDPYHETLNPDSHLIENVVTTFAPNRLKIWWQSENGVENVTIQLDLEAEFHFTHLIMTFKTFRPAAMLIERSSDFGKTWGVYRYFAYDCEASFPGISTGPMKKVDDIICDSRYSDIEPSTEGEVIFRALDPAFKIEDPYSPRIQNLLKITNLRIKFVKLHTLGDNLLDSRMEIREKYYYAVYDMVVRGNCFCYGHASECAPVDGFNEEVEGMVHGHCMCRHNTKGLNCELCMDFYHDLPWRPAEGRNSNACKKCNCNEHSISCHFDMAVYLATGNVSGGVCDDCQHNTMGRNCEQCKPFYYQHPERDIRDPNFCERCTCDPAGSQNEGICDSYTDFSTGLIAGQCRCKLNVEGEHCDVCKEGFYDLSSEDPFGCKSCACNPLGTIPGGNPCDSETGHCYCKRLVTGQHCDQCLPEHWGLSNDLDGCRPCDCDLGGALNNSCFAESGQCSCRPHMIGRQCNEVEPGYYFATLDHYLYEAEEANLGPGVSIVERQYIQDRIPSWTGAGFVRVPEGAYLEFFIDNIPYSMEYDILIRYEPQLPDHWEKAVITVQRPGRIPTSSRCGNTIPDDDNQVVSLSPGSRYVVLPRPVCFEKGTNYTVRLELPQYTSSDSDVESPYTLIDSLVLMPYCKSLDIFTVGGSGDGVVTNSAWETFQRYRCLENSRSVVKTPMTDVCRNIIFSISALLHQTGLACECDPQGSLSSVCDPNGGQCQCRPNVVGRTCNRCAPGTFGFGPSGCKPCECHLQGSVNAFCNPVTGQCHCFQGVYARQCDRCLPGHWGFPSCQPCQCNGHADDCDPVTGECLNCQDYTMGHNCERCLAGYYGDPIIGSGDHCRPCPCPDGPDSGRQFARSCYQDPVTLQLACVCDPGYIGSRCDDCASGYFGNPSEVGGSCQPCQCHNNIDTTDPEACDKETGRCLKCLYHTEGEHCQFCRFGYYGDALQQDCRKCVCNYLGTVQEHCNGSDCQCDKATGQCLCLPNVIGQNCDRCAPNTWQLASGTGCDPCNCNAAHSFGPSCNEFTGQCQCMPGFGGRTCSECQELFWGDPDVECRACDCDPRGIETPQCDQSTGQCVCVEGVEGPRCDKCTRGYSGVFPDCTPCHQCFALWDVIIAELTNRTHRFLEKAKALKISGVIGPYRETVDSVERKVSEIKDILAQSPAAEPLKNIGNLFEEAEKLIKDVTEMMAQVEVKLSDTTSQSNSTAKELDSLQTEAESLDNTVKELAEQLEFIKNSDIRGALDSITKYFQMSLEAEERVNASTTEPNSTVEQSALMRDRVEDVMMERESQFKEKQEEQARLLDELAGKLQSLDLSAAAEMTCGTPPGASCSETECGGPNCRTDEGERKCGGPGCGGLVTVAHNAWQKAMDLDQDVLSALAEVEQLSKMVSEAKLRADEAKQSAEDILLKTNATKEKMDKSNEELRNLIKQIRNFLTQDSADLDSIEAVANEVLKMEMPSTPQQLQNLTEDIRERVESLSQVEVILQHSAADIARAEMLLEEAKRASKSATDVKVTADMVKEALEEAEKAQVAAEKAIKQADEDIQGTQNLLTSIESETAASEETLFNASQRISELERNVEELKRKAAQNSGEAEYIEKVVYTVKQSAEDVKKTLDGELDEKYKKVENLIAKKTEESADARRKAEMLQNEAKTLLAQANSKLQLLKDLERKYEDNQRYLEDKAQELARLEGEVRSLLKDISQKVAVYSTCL
T3 sequence (P11047 34-1609 limits assumed, chain 3 of 3): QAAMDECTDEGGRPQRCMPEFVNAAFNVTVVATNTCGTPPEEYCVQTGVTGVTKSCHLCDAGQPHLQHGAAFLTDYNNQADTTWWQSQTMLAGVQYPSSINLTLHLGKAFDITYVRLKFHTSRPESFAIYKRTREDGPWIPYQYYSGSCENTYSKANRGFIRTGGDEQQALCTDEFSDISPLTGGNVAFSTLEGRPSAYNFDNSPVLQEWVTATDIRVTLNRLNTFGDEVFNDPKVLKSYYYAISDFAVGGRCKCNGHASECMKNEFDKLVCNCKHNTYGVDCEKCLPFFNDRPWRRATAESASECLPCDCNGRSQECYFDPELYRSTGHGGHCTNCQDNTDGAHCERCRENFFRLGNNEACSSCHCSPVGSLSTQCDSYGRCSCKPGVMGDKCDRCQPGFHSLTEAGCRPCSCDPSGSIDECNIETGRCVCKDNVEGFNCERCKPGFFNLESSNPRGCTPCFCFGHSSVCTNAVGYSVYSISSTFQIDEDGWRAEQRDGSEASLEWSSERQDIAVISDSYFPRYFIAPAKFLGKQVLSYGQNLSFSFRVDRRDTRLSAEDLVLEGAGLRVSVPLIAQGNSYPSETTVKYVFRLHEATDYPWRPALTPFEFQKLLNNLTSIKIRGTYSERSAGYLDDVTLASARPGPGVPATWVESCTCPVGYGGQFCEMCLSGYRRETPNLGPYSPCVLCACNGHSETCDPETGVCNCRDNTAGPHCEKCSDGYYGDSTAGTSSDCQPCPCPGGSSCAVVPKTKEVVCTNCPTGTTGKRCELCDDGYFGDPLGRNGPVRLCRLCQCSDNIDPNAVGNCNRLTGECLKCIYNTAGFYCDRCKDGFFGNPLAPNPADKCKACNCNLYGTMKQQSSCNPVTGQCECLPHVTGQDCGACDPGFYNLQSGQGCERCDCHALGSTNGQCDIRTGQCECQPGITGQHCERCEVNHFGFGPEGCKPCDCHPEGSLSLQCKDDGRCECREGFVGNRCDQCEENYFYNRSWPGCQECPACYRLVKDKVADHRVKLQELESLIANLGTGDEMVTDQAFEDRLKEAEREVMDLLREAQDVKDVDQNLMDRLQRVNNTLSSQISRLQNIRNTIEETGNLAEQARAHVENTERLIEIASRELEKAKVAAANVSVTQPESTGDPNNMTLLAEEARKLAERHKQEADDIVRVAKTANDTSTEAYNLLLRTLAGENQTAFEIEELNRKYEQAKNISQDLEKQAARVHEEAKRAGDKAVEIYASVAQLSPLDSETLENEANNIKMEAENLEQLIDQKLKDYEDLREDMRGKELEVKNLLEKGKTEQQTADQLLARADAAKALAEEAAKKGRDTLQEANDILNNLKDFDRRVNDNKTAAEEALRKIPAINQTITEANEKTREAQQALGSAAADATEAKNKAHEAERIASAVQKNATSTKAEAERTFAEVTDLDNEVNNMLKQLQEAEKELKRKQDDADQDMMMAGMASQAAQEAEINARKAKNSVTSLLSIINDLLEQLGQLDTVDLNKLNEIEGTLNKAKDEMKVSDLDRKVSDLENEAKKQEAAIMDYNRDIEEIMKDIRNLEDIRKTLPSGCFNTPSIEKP

Binder | binding result [1] | binding result [2] | IC50 (read off the curve) [3] [µg/mL]
mouse MCAM-Fc fusion protein (Fc fusion, UniProt Q8R2Y2 24-563, looked up, extracellular domain; Made in house; also called mMCAM-Fc; 650-conjugated mouse MCAM-Fc; not shown: human IgG1 (Fc part of the fusion)) VPGEEKQPVPTPDLVEAEVGSTALLKCGPSRASGNFSQVDWFLIHKERQILIFRVHQGKGQREPGEYEHRLSLQDSVATLALSHVTPHDERMFLCKSKRPRLQDHYVELQVFKAPEEPTIQANVVGIHVDRQELREVATCVGRNGYPIPQVLWYKNSLPLQEEENRVHIQSSQIVESSGLYTLKSVLSARLVKEDKDAQFYCELSYRLPSGNHMKESKEVTVPVFYPAEKVWVEVEPVGLLKEGDHVTIRCLTDGNPQPHFTINKKDPSTGEMEEESTDENGLLSLEPAEKHHSGLYQCQSLDLETTITLSSDPLELLVNYVSDVQVNPTAPEVQEGESLTLTCEAESNQDLEFEWLRDKTGQLLGKGPVLQLNNVRREAGGRYLCMASVPRVPGLNRTQLVSVGIFGSPWMALKERKVWVQENAVLNLSCEASGHPQPTISWNVNGSATEWNPDPQTVVSTLNVLVTPELLETGAECTASNSLGSNTTTIVLKLVTLTTLIPDSSQTTGLSTLTVSPHTRANSTSTEKKLPQPESKGVV | no binding | binds | –
mouse monoclonal antibody 19C12 (antibody, V domains shown, Mouse hybridoma antibody; Mouse IgG2b was used as its isotype control; also called m19C12) VH: QVQLQQSGAELVKPGASVKISCKASGYAFSTYWMNWVKQRPGEGLEWIGQIYPGDGDTNYNGKFKGKATLTADKSSSTAYMQLSSLTSEDSAVYFCARSDGYYDYWGQGTTLTVSS VL: NIVLTQSPASLAVSLGQRATISCRASESVDSYGTSFMHWYQQKPGQPPKLLICLASSLESGVPARFSGSGSRTDFTLTIDPVEADDAATYYCQQNNEDPPTFGAGTKLELKR | – | – | ~0.03
